From the nanobody polyreactivity screen of Harvey et al. (2022)

Assay: yeast display, Sf9 membrane polyspecificity reagent, FACS + sequencing; frameworks hold sequencing errors
In short: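 A synthetic nanobody library was expressed on Saccharomyces cerevisiae BJ5465 by galactose induction for 36–48 hours. The library was stained for 1 hour at 4 °C with 10% biotinylated, detergent-solubilized Sf9 membrane reagent and enriched with streptavidin microbeads before FACS. Low and high (top ~1%) gates were set on anti-HA fluorescence for expression and streptavidin fluorescence for reagent binding, and each polyreactivity label reflects the gate of origin.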

QVQLVESGGGLVQAGGSLRLSCAASGRTFRGYAMGWYRQAPGKERELVAAISSGGSTYYADSVKGRFTISRDNAKNTVYLQMNSLKPEDTAVYYCAVAYYPHGREGAHFQYGYDYWGQGTQVTVSS
polyreactivity (PSR sort gate): low polyreactivity
